From the supplement of paper PMC10201428
± gives the standard deviation of the averaged measurements.

Experiments:
[1] = tested on: VchCAST RNA-guided transposition machinery (E. coli BL21(DE3) host, lacZ target); test: relative integration efficiency (T-LR orientation) vs wild-type transposon end (log2 (normalized fold change)); transposon end mutated: left end; higher = more efficient transposition
Outline: (§1)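 Barcoded pools of 1549 left-end or 1849 right-end transposon variants were cloned into a pUC57 mini-transposon donor. Each pool was co-transformed with a T7-driven effector plasmid (CRISPR array, tniQ-cas8-cas7-cas6, tnsA-tnsB-tnsC) into E. coli BL21(DE3) and plated with 0.1 mM IPTG at 37°C for 18 h. Input plasmids and genomic integration junctions were PCR-amplified and Illumina-sequenced, with two biological output replicates and four wild-type barcodes as reference. Relative integration efficiency is output/input barcode abundance fold change, normalised to wild-type barcodes and log-transformed.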

[2] = tested on: VchCAST RNA-guided transposition machinery (E. coli BL21(DE3) host, lacZ target); test: relative integration efficiency (T-RL orientation) vs wild-type transposon end (log2 (normalized fold change)); transposon end mutated: left end; higher = more efficient transposition
Outline: as §1

Sequence	relative integration efficiency (log2) [1]	relative integration efficiency (log2) [2]
AATGTTGTTGATGCAACCATAAAGTGATATTTACCGACTGTCTGCCATCCGCCGCTGCACCGCAGCCCAACCATATATTGATATCTCACAAAACAACCATAAGTTGATATTTTTGTGAATCGAGTATTTCAGCAAAACTACTGCAGTAAGAA	-2.44 ± 0.78	-3.24 ± 1
AATGTTGTTGATGCAACCATAAAGTGATATTTACGAATCAATTAAAATCATAGGCTTAATCGAAAAACAACCATATATTGATATCTCATAAAACAACCATAAGTTGATATTTTGGTGAAAAGGATATTCCAACCTTCATAGTTTAGTAAGAA	0.612 ± 0.84	0.639 ± 0.032
AATGTTGTTGATGCAACCATAAAGTGATATTTACGAGCCGAGCTCGTGCCCGGTGCCGCGGCAGACGCAACCATATATTGATATCTCACAAAACAACCATAAGTTGATATTTTTGTGAATCGAGTATTTCAGCAAAACTACTGCAGTAAGAA	-2.47 ± 1.1	-2.33 ± 0.72
AATGTTGTTGATGCAACCATAAAGTGATATTTACGCACTCCGTAGCCATCTGGGGCACCGGACGCTCCAACCATATATTGATATCTCACAAAACAACCATAAGTTGATATTTTTGTGAATCGAGTATTTCAGCAAAACTACTGCAGTAAGAA	-3.42 ± 0.88	-2.64 ± 0.79
AATGTTGTTGATGCAACCATAAAGTGATATTTACGCCGGCGGGCGCCGACTACCAGGCCAACACCCCACCAACGCGCGGTCGCGAGACACCCCACCAACGCCTGGTCGCGGGGGTGTCCGATCTGATTTCAGCAAAACTACTGCAGTAAGAA	-6.15 ± 3.6	-6.9 ± 0.36
AATGTTGTTGATGCAACCATAAAGTGATATTTACGCCGGCGGGCGCCGACTACCAGGCCAACACCCCCAACCATATATTGATATCTCACAAAACAACCATAAGTTGATATTTTTGTGAATCGAGTATTTCAGCAAAACTACTGCAGTAAGAA	-2.85 ± 1.2	-3.42 ± 1.2
AATGTTGTTGATGCAACCATAAAGTGATATTTACGTCTGTACAGCGCACAGAAGCTGGGAACTCGGCCAACCATATATTGATATCTCACAAAACAACCATAAGTTGATATTTTTGTGAATCGAGTATTTCAGCAAAACTACTGCAGTAAGAA	-3.36 ± 2.2	-3.56 ± 1.1
AATGTTGTTGATGCAACCATAAAGTGATATTTACTAGGATTCATGTCAACGTGCAAGCTTAGTTCGACAACCATATATTGATATCTCACAAAACAACCATAAGTTGATATTTTTGTGAATCGAGTATTTCAGCAAAACTACTGCAGTAAGAA	-5.46 ± 2.5	-5.16 ± 1
AATGTTGTTGATGCAACCATAAAGTGATATTTACTTAAGCGAGTCTGTCCTTTCTGACTGTCGATCCCAACCATATATTGATATCTCACAAAACAACCATAAGTTGATATTTTTGTGAATCGAGTATTTCAGCAAAACTACTGCAGTAAGAA	-3.45 ± 1.6	-3.4 ± 1.1
AATGTTGTTGATGCAACCATAAAGTGATATTTAGACGTCCTTAACTCTGGCAGGGAGTTCAAGGGACCAACCATATATTGATATCTCACAAAACAACCATAAGTTGATATTTTTGTGAATCGAGTATTTCAGCAAAACTACTGCAGTAAGAA	-3.47 ± 2.7	-2.69 ± 1.2
AATGTTGTTGATGCAACCATAAAGTGATATTTAGCCGCTTCCGGGGCTGCCCTCTAAGCGCGAGCGCCAACCATATATTGATATCTCACAAAACAACCATAAGTTGATATTTTTGTGAATCGAGTATTTCAGCAAAACTACTGCAGTAAGAA	-0.565 ± 0.97	-3.92 ± 1.2
AATGTTGTTGATGCAACCATAAAGTGATATTTAGGCAGTGAGCGCAACGCAATTCTTAACCACAAAACAACCATATATTGATATCTCACAAAACAACCATAAGTTGATATTTTTGTGAATCGAGTATTTCAGCAAAACTACTGCAGTAAGAA	-3.58 ± 0.71	-4.22 ± 1.2
AATGTTGTTGATGCAACCATAAAGTGATATTTATAATTATTTATAATCAGCAACTTAACCACAAAACAACCATATATTGATATCTCACAAAACAACCATAAGTTGATATTTTTGTGAATCGAGTATTTCAGCAAAACTACTGCAGTAAGAAA	-0.645 ± 0.95	-0.877 ± 0.61
AATGTTGTTGATGCAACCATAAAGTGATATTTATACCGTTCGTATAATGTATGCTATACCAAGTTATCAACCATATATTGATATCTCACAAAACAACCATAAGTTGATATTTTTGTGAATCGAGTATTTCAGCAAAACTACTGCAGTAAGAA	-3.21 ± 0.88	-4.32 ± 1.2
AATGTTGTTGATGCAACCATAAAGTGATATTTATTGTGAGCGGATAACAATTGTGAGCGGATAACAACAACCATATATTGATATCTCACAAAACAACCATAAGTTGATATTTTTGTGAATCGAGTATTTCAGCAAAACTACTGCAGTAAGAA	-6.162 ± 0.037	-6.71 ± 0.35
AATGTTGTTGATGCAACCATAAAGTGATATTTATTTATGGCTAGCTCAGTCCTAGGTACAATGCTAGCAACCATATATTGATATCTCACAAAACAACCATAAGTTGATATTTTTGTGAATCGAGTATTTCAGCAAAACTACTGCAGTAAGAA	-2.71 ± 0.58	-4.66 ± 0.6
AATGTTGTTGATGCAACCATAAAGTGATATTTCCGCCGGCGGGCGCCGACTACCAGGCCAACACCCCACCAACGCGCGGTCGCGAGACACCCCACCAACGCCTGGTCGCGGGGGTGTCCGATCTGATTTCAGCAAAACTACTGCAGTAAGAA	-5 ± 1.2	-6.65 ± 1.1
AATGTTGTTGATGCAACCATAAAGTGATATTTGCTAGCACTATACCTAGGACTGAGCTAGCCGTCAACAACCATATATTGATATCTCACAAAACAACCATAAGTTGATATTTTTGTGAATCGAGTATTTCAGCAAAACTACTGCAGTAAGAA	< -10	-5.87 ± 1
AATGTTGTTGATGCAACCATAAAGTGATATTTGCTAGCATTGTACCTAGGACTGAGCTAGCCATAAACAACCATATATTGATATCTCACAAAACAACCATAAGTTGATATTTTTGTGAATCGAGTATTTCAGCAAAACTACTGCAGTAAGAA	-4.41 ± 1.3	-3.5 ± 0.79
AATGTTGTTGATGCAACCATAAAGTGATCGGGCATAATTATTTATAATCAGCAACTTAACCACAAAACAACCATATATTGATCGAGAACAAAACAACCATAAGTTGATCGGGGTGTGAATCGAGTATTTCAGCAAAACTACTGCAGTAAGAA	-3.33 ± 1.4	-3.68 ± 1.3
AATGTTGTTGATGCAACCATAAAGTGATCGGGCCGCCGGCGGGCGCCGACTACCAGGCCAACACCCCACCAACGCGCGGTCGCGAGACACCCCACCAACGCCTGGTCGCGGGGGTGTCCGATCTGATTTCAGCAAAACTACTGCAGTAAGAA	-7.44 ± 0.81	-8.26 ± 1.7
AATGTTGTTGATGCAACCATAAAGTGATTAAATATAATTATTTATAATCAGCAACTTAACCACAAAACAACCATATATTGATTAGAGACAAAACAACCATAAGTTGATTAAAATGTGAATCGAGTATTTCAGCAAAACTACTGCAGTAAGAA	-1.1 ± 0.76	-2.17 ± 0.87
AATGTTGTTGATGCAACCATAAAGTGTATAAATATAATTATTTATAATCAGCAACTTAACCACAAAACAACCATATATTGTATAGAGACAAAACAACCATAAGTTGTATAAAATGTGAATCGAGTATTTCAGCAAAACTACTGCAGTAAGAA	-3.62 ± 1.7	-4.69 ± 1.2
AATGTTGTTGATGCAACCATAACTGTCGCGGGCCGCCGGCGGGCGCCGACTACCAGGCCAACACCCCACCAACGCGCGGTCGCGAGACACCCCACCAACGCCTGGTCGCGGGGGTGTCCGATCTGATTTCAGCAAAACTACTGCAGTAAGAA	< -10	< -10
